In publication PMC2566858 (Nucleic Acids Research, 2008) one finds Kd data, which are given here for 2 molecules.

Broadly, the Kd is the equilibrium constant for the complex coming apart. A higher Kd goes with a looser complex.

Holding throughout (experiment): fluorescence anisotropy
Background: Fluorescence polarisation rises when a labelled molecule tumbles more slowly, as on binding a larger partner.

Data set [1] concerns the target T1, rGyr_hel (reverse gyrase helicase-like domain) (Thermotoga maritima, UniProt O51934 59-541).
T1 sequence: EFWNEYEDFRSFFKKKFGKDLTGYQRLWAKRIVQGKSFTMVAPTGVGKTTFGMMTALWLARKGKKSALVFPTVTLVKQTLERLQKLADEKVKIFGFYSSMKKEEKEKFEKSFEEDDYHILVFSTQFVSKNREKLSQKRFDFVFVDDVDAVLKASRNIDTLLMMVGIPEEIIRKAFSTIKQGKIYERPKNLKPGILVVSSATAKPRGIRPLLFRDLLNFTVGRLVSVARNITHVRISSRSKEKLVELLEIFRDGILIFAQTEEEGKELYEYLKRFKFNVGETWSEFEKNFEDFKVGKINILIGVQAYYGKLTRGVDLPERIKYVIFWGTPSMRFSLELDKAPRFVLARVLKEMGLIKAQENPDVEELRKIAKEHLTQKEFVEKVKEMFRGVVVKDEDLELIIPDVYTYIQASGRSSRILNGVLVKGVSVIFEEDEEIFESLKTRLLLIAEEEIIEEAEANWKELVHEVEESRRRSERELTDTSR

The target of data set [2] is T1, rGyr_hel (reverse gyrase helicase-like …). The source holds these as a separate data set.
Data set [3] concerns the target T2, rGyr_hel K106Q (Thermotoga maritima, UniProt O51934 59-541, K106Q).
T2 sequence: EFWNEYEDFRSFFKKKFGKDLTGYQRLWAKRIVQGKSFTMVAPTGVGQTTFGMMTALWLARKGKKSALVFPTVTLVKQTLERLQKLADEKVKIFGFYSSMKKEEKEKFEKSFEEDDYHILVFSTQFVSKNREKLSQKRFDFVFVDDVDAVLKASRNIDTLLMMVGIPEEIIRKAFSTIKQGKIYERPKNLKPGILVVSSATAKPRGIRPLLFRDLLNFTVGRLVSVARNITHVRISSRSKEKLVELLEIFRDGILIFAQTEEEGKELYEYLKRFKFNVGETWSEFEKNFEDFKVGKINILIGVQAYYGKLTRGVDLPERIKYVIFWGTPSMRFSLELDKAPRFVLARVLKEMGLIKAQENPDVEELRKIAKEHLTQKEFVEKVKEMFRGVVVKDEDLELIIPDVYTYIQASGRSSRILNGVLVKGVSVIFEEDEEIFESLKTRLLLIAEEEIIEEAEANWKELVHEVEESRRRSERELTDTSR

In data set [4] the target is T1, rGyr_hel (reverse gyrase helicase-like …). This is another data set of the same source.
The target of data set [5] is T2, rGyr_hel K106Q. This is another data set of the same source.
Data set [6] addresses T3, rGyr_fl K106Q/Y851F (Thermotoga maritima, UniProt O51934 1-1104, K106Q;Y851F).
T3 sequence: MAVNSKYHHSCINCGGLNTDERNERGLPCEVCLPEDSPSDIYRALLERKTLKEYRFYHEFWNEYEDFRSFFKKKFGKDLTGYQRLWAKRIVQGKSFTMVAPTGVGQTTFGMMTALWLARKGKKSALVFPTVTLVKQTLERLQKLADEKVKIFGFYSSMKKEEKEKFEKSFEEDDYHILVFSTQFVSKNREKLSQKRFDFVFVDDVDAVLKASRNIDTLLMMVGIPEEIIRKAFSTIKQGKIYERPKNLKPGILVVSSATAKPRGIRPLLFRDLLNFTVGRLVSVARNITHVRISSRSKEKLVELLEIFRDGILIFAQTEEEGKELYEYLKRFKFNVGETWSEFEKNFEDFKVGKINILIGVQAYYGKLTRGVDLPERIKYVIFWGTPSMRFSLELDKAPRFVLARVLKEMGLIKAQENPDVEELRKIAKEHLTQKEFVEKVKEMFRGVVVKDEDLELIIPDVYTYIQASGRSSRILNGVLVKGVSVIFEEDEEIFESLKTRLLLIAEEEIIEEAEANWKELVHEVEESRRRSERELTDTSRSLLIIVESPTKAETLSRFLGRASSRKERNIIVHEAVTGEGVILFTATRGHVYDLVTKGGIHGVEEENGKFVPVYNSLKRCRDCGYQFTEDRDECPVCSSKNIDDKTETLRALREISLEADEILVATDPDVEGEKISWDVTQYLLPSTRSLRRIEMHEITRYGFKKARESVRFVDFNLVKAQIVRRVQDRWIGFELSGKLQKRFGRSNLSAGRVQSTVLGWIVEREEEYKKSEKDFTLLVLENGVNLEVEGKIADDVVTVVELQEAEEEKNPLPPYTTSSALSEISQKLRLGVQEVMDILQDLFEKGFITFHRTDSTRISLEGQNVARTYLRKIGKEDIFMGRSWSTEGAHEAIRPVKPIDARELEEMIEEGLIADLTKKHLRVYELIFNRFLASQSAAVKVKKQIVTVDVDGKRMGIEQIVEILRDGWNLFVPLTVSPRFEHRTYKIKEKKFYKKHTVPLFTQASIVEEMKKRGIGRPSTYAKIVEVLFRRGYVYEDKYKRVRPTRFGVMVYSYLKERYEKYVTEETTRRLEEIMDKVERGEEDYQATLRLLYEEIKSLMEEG

Like-named read-outs stand apart in the source and are kept apart here.

B1: 60-base ssDNA (ssDNA)
DNA: AAGCCAAGCTTCTAGAGTCAGCCCGTGATATTCATTACTTCTTATCCTAGGATCCCCGTT
For the molecule B1, the Kd was determined as 380 ± 50 nM in data set [1]; 2900 ± 100 nM in data set [2]; 180 ± 30 nM in data set [3]; 310 ± 40 nM in data set [4]; 200 ± 20 nM in data set [5].

B2: 60 bp dsDNA (dsDNA)
DNA 1: AAGCCAAGCTTCTAGAGTCAGCCCGTGATATTCATTACTTCTTATCCTAGGATCCCCGTT
DNA 2: AACGGGGATCCTAGGATAAGAAGTAATGAATATCACGGGCTGACTCTAGAAGCTTGGCTT
B2 came in with a dissociation constant Kd in data set [6] of 710 ± 110 nM.
